Experimental findings from the Immune Epitope Database (IEDB) are described below.

Assay [1] deals with HLA-B*15:01. Put plainly: IEDB peptide-MHC binding, purified MHC/competitive/radioactivity; filed as Kd, often an IC50 or EC50 that approximates it; ≥ and ≤ were set here for values at or beyond the usual limits of such assays.
In the next assay the target is HLA-B*15:03. Described as above.
In assay [2] the target is HLA-B*15:01. In words: IEDB peptide-MHC binding, purified MHC/direct/fluorescence; filed as Kd, often an IC50 or EC50 that approximates it; ≥ and ≤ were set here for values at or beyond the usual limits of such assays.
The next assay addresses HLA-A*11:01. The assay is described as above.
The target of a further assay is HLA-A*03:01. Described as above.
Assay [3] concerns the target HLA-B*08:01. The assay is described as above.
The next assay concerns the target HLA-A*69:01. Described as above.
Assay [4] concerns the target HLA-B*07:02. The assay is described as above.
A further assay has as its target HLA-A*26:01. The assay is described as above.
The next assay concerns the target HLA-B*40:01. The assay is described as above.
The next assay addresses HLA-B*58:01. The assay is described as above.
The next assay deals with HLA-B*44:02. The description is as above.
The next assay deals with HLA-B*27:05. Described as above.
A further assay has as its target HLA-A*31:01. The description is as above.
The next assay deals with HLA-A*24:03. The description is as above.
Assay [5] has as its target HLA-A*02:01. The description is as above.
In the next assay the target is HLA-A*01:01. Described as above.
Assay [6] concerns the target HLA-B*08:01. Put plainly: IEDB peptide-MHC binding, purified MHC/competitive/radioactivity; filed as Kd, often an IC50 or EC50 that approximates it; ≥ and ≤ were set here for values at or beyond the usual limits of such assays.
The target of assay [7] is HLA-B*07:02. The assay is described as above. As to conditions: source organism: Dengue virus 4 Philippines/H241/1956.
The next assay deals with HLA-A*02:02. The description is as above.
For the next assay, the target named is HLA-A*68:02. The assay is described as above.
The target of the next assay is HLA-A*02:03. Described as above.
The target in assay [8] is HLA-A*02:01. The description is as above.
The next assay addresses HLA-A*02:06. Described as above.
A further assay has as its target HLA-A*30:01. The assay is described as above.
The target of the next assay is HLA-A*32:01. Described as above.
The next assay has as its target HLA-A*24:02. Described as above. As to conditions: source organism: Dengue virus 4 Philippines/H241/1956.
A further assay concerns the target HLA-A*23:01. Described as above.
[9] abbreviates: source organism: Vaccinia virus Copenhagen.
[10] abbreviates: source organism: Vaccinia virus WR.
[11] abbreviates: source organism: Neisseria gonorrhoeae.
Setting [12] is: source organism: Dengue virus 4 Philippines/H241/1956.
[13] abbreviates: source organism: Dengue virus 1 Brazil/97-11/1997.
[14] abbreviates: source organism: Vibrio vulnificus.
[15] abbreviates: source organism: Vibrio parahaemolyticus.
Where [16] appears, read: source organism: Trypanosoma cruzi.
Where [17] appears, read: source organism: Giardia lamblia ATCC 50803.

For LESQHIISF, the Kd with HLA-B*15:01 [1] (setting [9]) came out at 57.1 nM; with HLA-B*15:03 (setting [9]), 28.4 nM.

In the case of VIIMAINVF, the Kd was 26.4 nM with HLA-B*15:01 [1] (setting [10]) and 2030 nM with HLA-B*15:03 (setting [10]).

For the sequence GSDKQVVGQ, the Kd in the assay with HLA-B*15:01 [2] (setting [11]), with HLA-A*11:01 (setting [11]), in the assay with HLA-A*03:01 (setting [11]), in the assay with HLA-B*08:01 [3] (setting [11]), in the assay with HLA-A*69:01 (setting [11]) and in the assay with HLA-B*07:02 [4] (setting [11]) was ≥ 20000 nM throughout. Moreover, the dissociation constant Kd with HLA-A*26:01 (setting [11]), in the assay with HLA-B*40:01 (setting [11]), in the assay with HLA-B*58:01 (setting [11]), in the assay with HLA-B*44:02 (setting [11]), with HLA-B*27:05 (setting [11]) and with HLA-A*31:01 (setting [11]) was ≥ 20000 nM each time. The Kd with HLA-A*24:03 (setting [11]), in the assay with HLA-A*02:01 [5] (setting [11]) and in the assay with HLA-A*01:01 (setting [11]) was ≥ 20000 nM each time.

With LQRKHGGSL, the Kd was 26.2 nM with HLA-B*15:01 [1] (setting [12]), 57.4 nM with HLA-B*08:01 [6] (setting [12]) and 58.2 nM with HLA-B*07:02 [7].

For ELADKVTKL, the Kd is 33.2 nM with HLA-A*02:02 (source organism: Homo sapiens); 3.18 nM with HLA-A*68:02 (source organism: Homo sapiens); 114 nM in the assay with HLA-A*02:03 (source organism: Homo sapiens); 2510 nM with HLA-A*02:01 [8] (source organism: Homo sapiens); ≥ 38800 nM with HLA-A*02:06 (source organism: Homo sapiens).

On to ITKINTHLA, for which the Kd was 2890 nM with HLA-B*15:01 [1] (setting [10]); ≥ 22100 nM with HLA-B*08:01 [6] (setting [10]); ≥ 51400 nM in the assay with HLA-B*15:03 (setting [10]); 14.9 nM in the assay with HLA-A*30:01 (setting [10]); ≥ 77800 nM with HLA-A*32:01 (setting [10]).

Turning to QLIPCMDVV, the Kd with HLA-A*02:01 [8] (source organism: Triticum aestivum) was found to be 147 nM.

Take KGKAAAFAK: the Kd in the assay with HLA-B*15:01 [1] (setting [10]) is 12000 nM; with HLA-B*08:01 [6] (setting [10]), ≥ 77700 nM; with HLA-B*15:03 (setting [10]), 1900 nM; with HLA-A*30:01 (setting [10]), 3.12 nM; with HLA-A*32:01 (setting [10]), ≥ 56000 nM.

Take LLMRTTWAF: the Kd in the assay with HLA-B*15:01 [1] (setting [12]) turned out to be 1.08 nM; in the assay with HLA-B*08:01 [6] (setting [12]), 54.7 nM; with HLA-A*24:02, 24.4 nM; with HLA-A*32:01 (setting [12]) it was 1.69 nM; with HLA-A*23:01 (setting [12]) it was 75.4 nM.

KLVMAFIAF: the Kd worked out at 1.39 nM in the assay with HLA-B*15:01 [1] (setting [13]), 1180 nM with HLA-A*32:01 (setting [13]) and 4820 nM in the assay with HLA-A*23:01 (setting [13]).

Consider RRLLKFRVE, for which the Kd was ≥ 55000 nM with HLA-B*15:01 [1] (setting [9]); 128 nM with HLA-B*08:01 [6] (setting [9]); 14900 nM with HLA-B*15:03 (setting [9]); 1040 nM with HLA-A*30:01 (setting [9]); ≥ 34900 nM in the assay with HLA-A*32:01 (setting [9]).

In the case of ALYGSVPVL, the Kd with HLA-A*02:01 [8] (source organism: Homo sapiens) turned out to be 8.1 nM.

As to GLDVLTAKV, the Kd with HLA-A*02:01 [8] (source organism: Homo sapiens) was determined as 132 nM.

With LTFKACDHI, the Kd in the assay with HLA-B*15:01 [1] (setting [10]) was determined as 973 nM; in the assay with HLA-B*08:01 [6] (setting [10]), 838 nM; with HLA-B*15:03 (setting [10]) it was 845 nM; with HLA-A*30:01 (setting [10]) it was 81.5 nM; in the assay with HLA-A*32:01 (setting [10]), 18800 nM.

For FIRYRMHPM, the dissociation constant Kd with HLA-B*15:01 [1] (setting [10]) stood at 1.22 nM; with HLA-B*08:01 [6] (setting [10]), 0.208 nM; with HLA-B*15:03 (setting [10]), 21.6 nM; in the assay with HLA-A*30:01 (setting [10]), 2790 nM; in the assay with HLA-A*32:01 (setting [10]), 14300 nM.

Consider KSIEQHPVV, for which the Kd stood at 70.5 nM in the assay with HLA-B*15:01 [1] (setting [10]); 11700 nM with HLA-B*08:01 [6] (setting [10]); 79.6 nM in the assay with HLA-B*15:03 (setting [10]); 2.7 nM in the assay with HLA-A*30:01 (setting [10]); 1910 nM with HLA-A*32:01 (setting [10]).

Take KSSPETQQM: the Kd with HLA-B*15:01 [1] (setting [10]) is 30.4 nM; in the assay with HLA-B*08:01 [6] (setting [10]), 2350 nM; with HLA-B*15:03 (setting [10]), 108 nM; with HLA-A*30:01 (setting [10]) it was 1130 nM; with HLA-A*32:01 (setting [10]) it was 464 nM.

For the sequence VEGEGLHKL, the Kd with HLA-B*44:02 (source organism: Dengue virus 1 Singapore/S275/1990) was ≥ 20000 nM.

As to ILLRKGHVF, the dissociation constant (Kd) is 115 nM with HLA-B*15:01 [2] (setting [14]); ≥ 20000 nM with HLA-A*11:01 (setting [15]); ≥ 20000 nM with HLA-A*03:01 (setting [15]); 107 nM in the assay with HLA-B*08:01 [3] (setting [14]); ≥ 20000 nM with HLA-A*69:01 (setting [15]); 10000 nM in the assay with HLA-B*07:02 [4] (setting [14]). Further, the Kd in the assay with HLA-A*26:01 (setting [15]), with HLA-B*40:01 (setting [15]), with HLA-B*58:01 (setting [15]), in the assay with HLA-B*44:02 (setting [15]), in the assay with HLA-B*27:05 (setting [15]) and with HLA-A*31:01 (setting [15]) was ≥ 20000 nM throughout. For the same sequence, the results for the Kd in the assay with HLA-A*24:03 (setting [14]), with HLA-A*02:01 [5] (setting [15]) and with HLA-A*01:01 (setting [15]) were 4280 nM, ≥ 20000 nM and ≥ 20000 nM, respectively.

As for EMIQLQEEL, the equilibrium dissociation constant (Kd) in the assay with HLA-A*02:02 (source organism: Homo sapiens) turned out to be 123 nM; in the assay with HLA-A*02:01 [8] (source organism: Homo sapiens) it was 3100 nM.

Take DTMRPTTVV: the equilibrium dissociation constant (Kd) was ≥ 28900 nM with HLA-A*02:02 (setting [16]); 1.38 nM with HLA-A*68:02 (setting [16]); 4630 nM in the assay with HLA-A*02:03 (setting [16]); ≥ 83300 nM with HLA-A*02:01 [8] (setting [16]); 3040 nM in the assay with HLA-A*02:06 (setting [16]).

As to WSFLEDRVY, the dissociation constant (Kd) in the assay with HLA-B*15:01 [2] (setting [17]) was 42 nM; with HLA-A*11:01 (setting [17]), ≥ 20000 nM; with HLA-A*03:01 (setting [17]), ≥ 20000 nM; with HLA-B*08:01 [3] (setting [17]), ≥ 20000 nM; with HLA-A*69:01 (setting [17]), ≥ 20000 nM; with HLA-B*07:02 [4] (setting [17]), ≥ 20000 nM. The Kd in the assay with HLA-A*26:01 (setting [17]) is ≥ 20000 nM; with HLA-B*40:01 (setting [17]), ≥ 20000 nM; with HLA-B*58:01 (setting [17]), 484 nM; in the assay with HLA-B*44:02 (setting [17]), ≥ 20000 nM; in the assay with HLA-B*27:05 (setting [17]), ≥ 20000 nM; with HLA-A*31:01 (setting [17]), ≥ 20000 nM. Further, the values for the Kd with HLA-A*24:03 (setting [17]), with HLA-A*02:01 [5] (setting [17]) and in the assay with HLA-A*01:01 (setting [17]) were ≥ 20000 nM, ≥ 20000 nM and 2270 nM, respectively.
